Assay results as given in paper doi:10.1101/2020.12.23.423990.
“And” between values parts separate entries of the source, which are not always exact repeats. Identical values can stand only once.

Biological target: nucleocapsid variant NC-1 (circularly permuted Aquifex aeolicus lumazine synthase with the arginine-rich peptide λN+ appended) (Aquifex aeolicus)
Assay: cryo-EM structure

nucleocapsid variant NC-1 (circularly permuted Aquifex aeolicus lumazine synthase with the arginine-rich peptide λN+ appended)
stoichiometry N: 180 and 120
